# How the values were obtained:
# [1] = target: TBC1D23 C-terminal domain (mouse, UniProt Q8K0F1 559-684); assay: ITC
# [2] = target: TBC1D23 C-terminal domain K672A (mouse, UniProt Q8K0F1 559-677, K672A); assay: ITC
# Sequence of TBC1D23 C-terminal domain K672A (Q8K0F1 559-677 K672A): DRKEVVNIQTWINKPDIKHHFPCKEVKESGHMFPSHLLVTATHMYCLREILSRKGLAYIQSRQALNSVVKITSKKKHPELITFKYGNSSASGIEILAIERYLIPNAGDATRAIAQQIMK
# Sequence of TBC1D23 C-terminal domain (Q8K0F1 559-684): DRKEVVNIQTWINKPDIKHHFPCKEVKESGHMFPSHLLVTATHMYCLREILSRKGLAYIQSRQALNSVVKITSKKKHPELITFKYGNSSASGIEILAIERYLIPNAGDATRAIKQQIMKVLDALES
Binder,Kd [1],Kd [2]
DDNTLYHAGFTED [STX16 R216A],10.3 µM,
DDNTLYHRGFTED [syntaxin-16 (209–221) peptide],,27.5 µM
AANTLYHRGFTED [STX16 DD209-210AA],> 200 µM,
